Several values for one entry are separate records, joined by “and”; a condition that tells them apart may be missing. Equal entries are not always repeated.
Tests used:
[1] = molecular target: sc9-10_DS-CAV1_bRSV(RB94)_Fd_(hRSV-leader)_ig1; test: ELISA, variant from culture supernatant on Ni-NTA plate [continued]
391-2-DS-Cav1-BZGJ9_gyc6 = test: as above
[2] = molecular target: RB94 DS-CAV1 N70K S104F K117T; test: as above
391-2_DS-Cav1-tzsc6 = test: as above
391-2-DS-Cav1-SC-IP-1 = test: as above
391-2-DS-Cav1-BZGJ9_gyc4 = test: as above
391-2-DS-Cav1-BZGJ9_gyc2 = test: as above
391-2_DS-Cav1-tzsc2 = test: as above
[3] = molecular target: RB94_sc9-10 DS-CAV1 L373R; test: as above
391-2-DS-Cav1-IP-7 = test: as above
[4] = molecular target: 391-2-DS-Cav1-BZGJ9_gyc10; test: as above
[5] = molecular target: 391-2-DS-Cav1-BZGJ9deleteFS; test: as above
391-2_DS-Cav1-tzsc9 = test: as above
391-2-DS-Cav1-BZGJ9_gyc3 = test: as above
391-2_DS-Cav1-tzsc4 = test: as above
391-2-DS-Cav1-IP-2 = test: as above
391-2-DS-Cav1- F-SC_11R = test: as above
391-2-DS-Cav1-BZGJ9 = test: as above
[6] = molecular target: sc9-10_DS-CAV1_bRSV(RB94)_Fd_fp1_ig1; test: as above
[7] = molecular target: bRSV RB94 DSCav1 (bovine respiratory syncytial virus, strain RB94) (UniProt P23728)
[8] = molecular target: 391-2-DS-Cav1_ S398C-S485C; test: ELISA, variant from culture supernatant on Ni-NTA plate
[9] = molecular target: RB94 sc9 DS-CAV1 N183GC-N428C L373R Long S190V; test: as above
[10] = molecular target: RB94 hu/bov DS-CAV1 A149C-Y458C Long; test: as above
[11] = molecular target: RB94 dscav1T369C-T455C Long S190V; test: as above
[12] = molecular target: RB94 sc9 DS-CAV1 A149C-Y458C L373R Long; test: as above
[13] = molecular target: sc9-10_DS-CAV1_bRSV(RB94)_Fd_pm1_ig1; test: as above
[14] = molecular target: RB94 site 0 hRSV DS-Cav1 Long FdPL; test: as above
391-2-DS-Cav1-IP-5 = test: as above
[15] = molecular target: sc9-10_DS-CAV1_bRSV(RB94)_Fd_pm1_fp2_ig1; test: as above
391-2_DS-Cav1-tzsc3 = test: as above
[16] = molecular target: 391-2-DS-Cav1-sc9deleteFS 98C-361C; test: as above
391-2-DS-Cav1-BZGJ9_gyc1 = test: as above
[17] = molecular target: sc9-10_DS-CAV1_bRSV(RB94)_Fd_hp1_fp1_ig1; test: as above
391-2-DS-Cav1-BZGJ9_gyc5 = test: as above
[18] = molecular target: RB94 sc9 DS-CAV1 A149C-Y458C L373R Long S190V; test: as above
[19] = molecular target: RB94 sc9 DS-CAV1 N183GC-N428C L373R; test: as above
[20] = molecular target: RB94 DS-CAV1 T369C-T455C Long; test: as above
[21] = molecular target: 391-2 sc9 DS-Cav1 98C-362C; test: as above
[22] = molecular target: 391-2-DS-Cav1-sc9 99C-361C; test: as above

motavizumab (antibody)
ELISA binding value [1]: 0.538 | ELISA binding value (391-2-DS-Cav1-BZGJ9_gyc6): 1.05 | ELISA binding value [2]: 0.271 | ELISA binding value (391-2_DS-Cav1-tzsc6): 0.527 | ELISA binding value (391-2-DS-Cav1-SC-IP-1): 1.1 | ELISA binding value (391-2-DS-Cav1-BZGJ9_gyc4): 0.486 | ELISA binding value (391-2-DS-Cav1-BZGJ9_gyc2): 1.58 | ELISA binding value (391-2_DS-Cav1-tzsc2): 0.366 | ELISA binding value [3]: 0.689 | ELISA binding value (391-2-DS-Cav1-IP-7): 0.546 | ELISA binding value [4]: 0.461 | ELISA binding value [5]: 0.152 | ELISA binding value (391-2_DS-Cav1-tzsc9): 1.59 | ELISA binding value (391-2-DS-Cav1-BZGJ9_gyc3): 0.599 | ELISA binding value (391-2_DS-Cav1-tzsc4): 0.639 and 0.505 | ELISA binding value (391-2-DS-Cav1-IP-2): 0.556 | ELISA binding value (391-2-DS-Cav1- F-SC_11R): 0.538 | ELISA binding value (391-2-DS-Cav1-BZGJ9): 0.5 | ELISA binding value [6]: 0.545 | ELISA binding value [7]: 0.371 | ELISA binding value [8]: 0.545 | ELISA binding value [9]: 0.617 | ELISA binding value [10]: 0.79 | ELISA binding value [11]: 0.511 | ELISA binding value [12]: 0.512 | ELISA binding value [13]: 2.22 | ELISA binding value [14]: 1.75 | ELISA binding value (391-2-DS-Cav1-IP-5): 1.83 | ELISA binding value [15]: 1.32 | ELISA binding value (391-2_DS-Cav1-tzsc3): 0.785 | ELISA binding value [16]: 0.899 | ELISA binding value (391-2-DS-Cav1-BZGJ9_gyc1): 2.12 | ELISA binding value [17]: 2.22 | ELISA binding value (391-2-DS-Cav1-BZGJ9_gyc5): 2.04 | ELISA binding value [18]: 0.537 | ELISA binding value [19]: 1.04 | ELISA binding value [20]: 0.448 | ELISA binding value [21]: 0.75 | ELISA binding value [22]: 1.68

— patent publication US20190330277A1
